Assays:
[1] = C57HL/6 mice, 72 h; cited from earlier work
Text: In the final time points of the extended μPET/μCT experiment, the signal in the liver still appeared to be going down, while the study co ...

[2] = μPET/μCT stability study of ^64Cu-labeled pTrMA-co-DOTA (fresh, plasma-incubated, free ^64CuCl2); format: in vivo, C57BL/6 mice; settings: female mice, n = 4, i.v., fresh 200 μCi, plasma-incubated (37 °C, 24 h) 100 μCi, ^64CuCl2 100 μCi, mean ± SEM
Method: To determine if organ signal attenuation was occurring because ^64Cu was released from pTrMA-co-DOTA in vivo due to insufficiently strong DOTA chelation, the stability of the radiolabeled polymer as well as the biodistribution and excretion of free ^64Cu was investigated by further μPET/μCT imaging. Mice (female, n = 4) were i.v. injected with the fresh ^64Cu-labeled pTrMA-co-DOTA (200 μCi), ^64Cu-pTrMA-co-DOTA after incubating in plasma at 37 °C for 24 h (100 μCi), and free ^64CuCl2 (100 μCi). […] If ^64Cu was readily leached from the DOTA group when incubated in plasma, the shifting biodistribution in the organs with time would have been the same as with the mice exposed to free ^64CuCl2. […]
Figure 6 Time course biodistribution and excretion of fresh ^64Cu-labeled pTrMA-co-DOTA (blue), plasma-incubated ^64Cu-labeled pTrMA-co-DOTA (red), and free ^64CuCl2 (green) from the organs (a) brain, (b) heart, (c) liver, (d) left kidney, (e) right kidney, (f) bladder, (g) muscle, (h) left lung, (i) right lung, (j) spleen, and (k) intestine of female (n = 4) mice. […] Data were quantified from μPET images.
^64Cu-radiolabeled pTrMA-co-DOTA was incubated in plasma collected from a female C57BL/6 mouse at 37 °C for 24 h. […] Co-registered μPET/μCT images were analyzed, and MIPs were generated using AMIDE software.

[3] = Differential scanning calorimetry, melting temperature of insulin; format: physicochemical; settings: DSC; insulin 10 mg/mL in 10 mM HCl; pTrMA 5 mol equiv or trehalose 50 mg/mL
Text: In addition, differential scanning calorimetry was undertaken to study the melting temperature of the insulin. […] Thus, it is unlikely that the change in melting temperature is a significant factor in protein stabilization.

[4] = Long-term insulin stability at 4 °C, RP-HPLC; format: physicochemical
Method: To study relevant storage, the formulations were kept at a standard refrigeration temperature at 4 °C for 46 weeks.
The samples were stored at 4 °C for […], followed by regular sampling.

[5] = SEC-MALS oligomerization state of insulin; format: physicochemical; settings: insulin 30 mg/mL, 0.1 M PBS pH 7.4; pTrMA 26.0 kDa 30 mg/mL; fresh or heated 90 °C 30 min
[6] = Thioflavin T (ThT) fibrillation assay; format: physicochemical; settings: 90 °C, 30 min; ThT 50 μM, 20 min at 21 °C; λex 450 nm, λem 482 nm; n = 3
Method: In addition, differential scanning calorimetry was undertaken to study the melting temperature of the insulin. […] Thus, it is unlikely that the change in melting temperature is a significant factor in protein stabilization. […] The samples were stored at 4 °C or heated to 90 °C for 30 min in ambient light. Aliquots of each insulin sample were used directly for SDS and native PAGE as well as ThT assay. […] ThT was prepared at 50 μM (0.0159 mg/mL) in 20 mM DPBS pH 7.4. Into a black 96-well plate, 50 μL of each sample was pipetted. To these was added 250 μL of ThT solution, and the plate was incubated at room temperature (21 °C) for 20 min. Fluorescence intensity was measured on a Tecan M1000 plate reader (λex = 450 nm, λem = 482 nm).

[7] = Accelerated heating assay of insulin (90 °C, 30 min), HPLC and PAGE; format: physicochemical; settings: DPBS pH 7.4, insulin 1 mg/mL final, pTrMA 28.1 kDa 2 mol equiv, 0.22 μm filtered, RP-HPLC, n = 3
Method: The formulations were heated to 90 °C for 30 min. […] The heated samples were also investigated by native polyacrylate gel electrophoresis (PAGE) for changes to MW or isoelectric point for evidence of chemical changes or aggregate formation (Figure 8b).
For all *p < 0.05, **p < 0.01, and ***p < 0.001.
The samples were stored at 4 °C or heated to 90 °C for 30 min in ambient light. Aliquots of each insulin sample were used directly for SDS and native PAGE as well as ThT assay. […] ThT was prepared at 50 μM (0.0159 mg/mL) in 20 mM DPBS pH 7.4. Into a black 96-well plate, 50 μL of each sample was pipetted. To these was added 250 μL of ThT solution, and the plate was incubated at room temperature (21 °C) for 20 min. Fluorescence intensity was measured on a Tecan M1000 plate reader (λex = 450 nm, λem = 482 nm).

[8] = test system: IgG and IgM antibodies specific to OVA or pTrMA; assay: Antibody immunogenicity study, IgG and IgM immune ELISA of serum; format: in vivo; settings: female CD-1 mice, n = 5–6; i.p. at weeks 0 and 2; OVA 2 mg/kg, pTrMA 10 wt %; serum weeks 1-3; ELISA vs naïve serum
Method: To study the adaptive immune response in the form of antibody production, mice were challenged at weeks 0 and 2 with the model immunogenic protein ovalbumin (OVA, 2 mg/kg) as a positive control, pTrMA (10 wt % or 100 mg/mL), or both OVA + pTrMA (2 mg/kg OVA, 10 wt % pTrMA) via intraperitoneal (i.p.) injection. Serum was collected each week, and the immunoglobulin IgG and IgM antibodies specific to OVA or pTrMA were measured by ELISA. For ELISA, OVA or bovine serum albumin (BSA) conjugated with pTrMA (Figure S1) was adsorbed for 16–18 h on microplate wells to capture any antibodies in the serum. Serum from challenged mice and naïve mice as a negative control was measured for antibodies against the challenge antigen, OVA, or the BSA–pTrMA conjugate. Serum from the mice treated with OVA and pTrMA was tested against both OVA and the BSA–pTrMA conjugate. Testing against both antigens measured if the polymer increases the immunogenicity of OVA and, conversely, if the presence of an immunogenic protein, OVA, elicited an immunogenic response to the polymer (Figure S2).
Figure 2 Antibody levels in mice specific to OVA or pTrMA (BSA–pTrMA conjugate) antigens over 3 weeks after i.p. injection of OVA (2 mg/kg), OVA + pTrMA (2 mg/kg, 10 wt %), or pTrMA (10 wt %) at weeks 0 and 2 (n = 5–6). […]

## [64Cu+2].[Cl-].[Cl-] [^64CuCl2]
[1]
  accumulation in the kidneys: 10 % ID/cc
  accumulation in the liver: 13 % ID/cc
[2]
  total signal remaining at the 24 h time point: 56.3 ± 19.7%

## OC[C@H]1O[C@H](O[C@H]2O[C@H](CO)[C@@H](O)[C@H](O)[C@H]2O)[C@H](O)[C@@H](O)[C@@H]1O [trehalose]
[3]
  melting temperature of insulin (alone or with the named additive): 88.8 °C

## insulin: Recombinant human insulin purchased from Sigma-Aldrich
[4]; DPBS pH 7.4, insulin 1 mg/mL final, pTrMA 10.1 kDa 2 mol equiv, 0.22 μm filtered, RP-HPLC, n = 3, mean ± SEM
  intact insulin, % of the original level, after 20 weeks: 67.4 ± 7.0%
[4]; DPBS pH 7.4, visual
  appearance of solution (aggregation) during weeks 20-46: visually cloudy
[5]
  oligomerization state by SEC-MALS: no hexameric insulin was present
[6]
  ThT fluorescence signal: significantly higher (p < 0.01) fluorescence signal than fresh insulin
[7]
  degradation (deamidation at AsnB3) after heating, HPLC: very little intact insulin remaining
[3]
  melting temperature of insulin (alone or with the named additive): 86.6 °C

B1: OVA: model immunogenic protein ovalbumin, positive control (protein, UniProt P01012 2-386, looked up)
Ovalbumin: GSIGAASMEFCFDVFKELKVHHANENIFYCPIAIMSALAMVYLGAKDSTRTQINKVVRFDKLPGFGDSIEAQCGTSVNVHSSLRDILNQITKPNDVYSFSLASRLYAEERYPILPEYLQCVKELYRGGLEPINFQTAADQARELINSWVESQTNGIIRNVLQPSSVDSQTAMVLVNAIVFKGLWEKAFKDEDTQAMPFRVTEQESKPVQMMYQIGLFRVASMASEKMKILELPFASGTMSMLVLLPDEVSGLEQLESIINFEKLTEWTSSNVMEERKIKVYLPRMKMEEKYNLTSVLMAMGITDVFSSSANLSGISSAESLKISQAVHAAHAEINEAGREVVGSAEAGVDAASVSEEFRADHPFLFCIKHIATNAVLFFGRCVSP
[8]
  OVA-specific IgG response: increased in both weeks 2 and 3
  OVA-specific IgM response: only elevated in the first week

Reference: publication PMC9412841 (ACS Applied Materials & Interfaces, 2022)
